{"source": "paper PMC3164632", "biological_target": "West Nile virus envelope (E) protein (West Nile virus)", "data": [{"substance": "Aedes aegypti pupal cuticle (PC) protein (AAEL011045) (natural protein)", "values": [{"measurement": "survival of mice injected i.p. with WNV pre-incubated with PC protein for an hour at 37°C (against WNV alone, all of which died within 14 days p.i.)", "value": 60, "unit": "%"}]}]}
